# In the DeepSol protein solubility set:
# Assay: soluble on expression in E. coli; label from the status in PepcDB or PDB records
row,Sequence,soluble on expression in E. coli
1,GPGSMENKLLSAPQNTVNPIIEKKRVVSCGMCEVDTTKLLEELRKVKENLSEVIDECIFLENQCEMTEKRLKSELLDRDKRIADISSALMEMVKYTSLLERQVIASAFTTLGSAMKRAPAIDMCRNISLREVASAVRERGESSGSRSSAKRKTRNGALYSEAKMAEEKNAFLLSVDEACALVNGLLREKVNLAAKIGEVAFHVNNAIARGERTSPALPDASSENVDDLHQSILNLTKQLSACGNEGDEEKNLKQVPSQHTAETEEPRQPQGLIAEKEDNTSRPQSPSQTQPPAGLASLGPHILDISRSSLPAVSITTQKGEGECGDITTESLVKKLAAAEEKCMAVEKQSRREREELHAELAYLRNSSREEKEEYNTLIERLTVELEILVAENAVMRKRIKGRKHSRDKIE,not soluble
2,MATGLGFFKLSFLLSLLSGGSDLLGPDAESGVAQIGKFPPSCNRIECPSYELVHSGNGYEIRRYNNTVWVSTEPIPDISLVDATRTAFFQLFAYIQGKNEYHQKIEMTAPVISQVSPSDGPFCESSFTVSFYVPKKNQPDPAPSENLHIQKWNSRYVAVRQFSGFVSDDSIGEQAAALDSSLKGTAWANAIAKSKEDGGVGSDSAYTVAQYNSPFEFSGRVNEIWLPFELDV,not soluble
3,MTNMDNYCVIMGGGIGSRFWPFSRKTLPKQFLDFFGTGRSLLQQTFDRFQKVIPTENILIVTNAMYADLVKEQLPELDEKQILLEPARRNTAPCIAWAAYHIRALNPNANIVVAPSDHLILKEEEFRAAIIKGLEFVSHSEKLLTLGIKPNRPETGYGYIQIDEPTGDGFYKVKTFTEKPELELAKVFVESGEFYWNSGLFMWNVNTIIKAAEILLPELVSKLAPGKNIYATDKEKAFIEENFPACPNVSIDFGIMEKADNVYVSLGDFGWSDLGTWGSLYDLSERDREGNVTLKSHSLIYNGKDNMIVLPKGKLAVIDGLEGYLIAESDNVLLICRKDEEHSIRKYVNDAQMQLGDDFI,not soluble
4,MGSDKIHHHHHHMRFYTKTHKYYCGIDLHARKKYVCILDSEGTVLVHREINCNPESFLRLVAPYREDLVVGVECMFAWYWLADLCRNEKIEFVLGHALYMKAVHGGKAKSDKIDAHKIAVLLRGGMFPLAYVYPPEMRATRDLLRRRNFFVRKRAELMAHIQNTVTQYNLAPLGIDLGVEENRHEVAQLFHDPEVRKIIEIDVAMIDAFDDVINVLEPDIEKTARQHNLHALKLLRSINGVGKVLGLVMLYEIHDINRFPTVQDFSSYCRLVKCAHESAGKKKGVGGSKIGNVHLKWAFSEAAVFFVRHNPQAKILMEKLVKIHGKGKAISILAHKLARAIFYMLKNNVPFDREKFLATA,not soluble
5,MGSDKIHHHHHHMRSDVIKKGLERVPHRSLLKALGITDDEMRRPFIGIVSSWNEIIPGHVHLDKVVEAVKAGVRMAGGVPFVFPTIGICDGIAMDHRGMKFSLPSRELIADSIEIVASGFPFDGLVFVPNCDKITPGMMMAMGRLNIPSVLISGGPMLAGRYNGRDIDLITVFEAVGGYKVGKVDEETLKAIEDLACPGAGSCAGLFTANTMNSLAEALGIAPRGNGTVPAVHAKRLRMAKEAGMLVVELVKRDVKPRDIVTLDSFMNAVMVDLATGGSTNTVLHLKAIAESFGIDFDIKLFDELSRKIPHICNISPVGPYHIQDLDDAGGIYAVMKRLQENGLLKEDVMTIYLRKIGDLVREAKILNEDVIRPFDNPYHKEGGLGILFGNLAPEGAVAKLSGVPEKMMHHVGPAVVFEDGEEATKAILSGKIKKGDVVVIRYEGPKGGPGMREMLSPTSAIVGMGLAEDVALITDGRFSGGSHGAVIGHVSPEAAEGGPIGIVKDGDLIEIDFEKRTLNLLISDEEFERRMKEFTPLVKEVDSDYLRRYAFFVQSASKGAIFRKP,not soluble
6,MITCLIVDDELFAREELADSLSQEADIEIIGQCSNAIEALQTITKEKPQLVFLDIQMPRISGMELIAMLDPDTLPKIVFVTAFDEFAVKAFDNHAFDYLLKPIDADRLSKTLKRVRKDLTPQAVNLIAPRSLEHLPCYSGSKLKVIPIQDVEYVFSDLSGIHVACTKGKVHTQLTLKVLEEKTPLVHCHRQYLISPKAIAEIELLDTGAEVTTLLGDKVPVSRRYLKSLKQLFGFQ,not soluble
7,MSLISIVVLYYSRHGSTQALARQIARGVESVEGCQALLRTVAELDGTASNSDPYLSLDELKQCDGLALGSPVWFGNMAAPLKHFWDQTTPLWLSGALIDKPACVFTSSSTLHGGQETTQQSMMLPLLHHGMLILGIPYSEPALHTTQSGGTPYEGHHHHHH,not soluble
8,GMTQLDTWLANTKPLIPVIVIDDLVHAIPMAKALVAGGVHLLEVTLRTEAGLAAISAIKKAVPEAIVGAGTVCTADDFQKAIDAGAQFIVSPGLTPELIEKAKQVKLDGQWQGVFLPGVATASEVMIAAQAGITQLKCFPASAIGGAKLLKAWSGPFPDIQFCPTGGISKDNYKEYLGLPNVICAGGSWLTESKLLIEGDWNEVTRRASEIVKLSDI,soluble
9,MAHHHHHHMFNYRREVLLDLWRKMPEAAACETVAPPEAVKGEEKRQQSVVKTQLDWLSEELKLSSSIIQSDYKVYAAFVHRRWVFMQLRRLAESALGNVGKRSKPAAPAGCQLGECAAAGEFDLPEEVLFWAKALLKEKRQGDALLAMDERNFHAWEFRRWVMYQLGQMEDLFVQSSIQFGPAVVGIKEREFASYMNGSAKSDRPRDLFFTPTEVKELNFTSAAVRRNFSNYSAWHQRGFIMQGALRRLQQRQWREEEADNNLRDGMLSQAWGQLEEDLTLLTTAIYCDPLDQSAWYYAKFLIHASKQLTALPFASTAVPIDITAKLDEVCLDLVGEERRLGEDMETYWPYLHLATSLLTSIKKSNDGNSSDVISDRQSALKLAREVWAALQPQGRHVNGDDDCIKCLQELCAHLTTADPLRAGMYKYFLSEVTTA,not soluble
10,MSLSVAIIGPGAVGTTIAYELQQSLPHTTLIGRHAKTITYYTVPHAPAQDIVVKGYEDVTNTFDVIIIAVKTHQLDAVIPHLTYLAHEDTLIILAQNGYGQLEHIPFKNVCQAVVYISGQKKGDVVTHFRDYQLRIQDNALTRQFRDLVQDSQIDIVLEANIQQAIWYKLLVNLGINSITALGRQTVAIMHNPEIRILCRQLLLDGCRVAQAEGLNFSEQTVDTIMTIYQGYPDEMGTSMYYDIVHQQPLEVEAIQGFIYRRAREHNLDTPYLDTIYSFLRAYQQNEGHHHHHH,soluble
11,MFTGIINHCGEIRSMEALPDHTVLSIDTQFSDLQLGESIAIDGICVTVTQKKLGSFSCDLSPETLACTKARDYKIGSRINLERALRLTDRLGGHFVSGHVDQTAILESQKKHAEFIQMDFKNSSEERWNYLIPKGSVAVNGVSLTVNSVAGDYFSVMLIPHTLEHTNLNDLKEGQIVNIEFDLITKIIVQKTREALSHAKTI,soluble
12,MGSDKIHHHHHHELGMQDNLNDSKILLSSDEYISIAYDNPGIITSEEAKQLVLDFNPTGLQTRNNNVKIMAISTYNVSSSSGLKTRVGSTNLTTIPVYKIEFLSDEGKGVAYVPADERFAKIMAYLPKTDLKDSVKYVDSKSMLYLSELSLLEDAKYYEKVKSELRAKTLAKIAKTLNVKAVRYDEIQDIIIVKDEILSRSEPTFPIGNPIGFAGLYCSSTEWNQDAPYNDLLQKENCDLYDTGSPTYEAVPAGCAVISIAQIMASLEPDLTVDGLKIDWNILKAQKQIIAPSSWQTPSSETTREMVAKLIKYIYIATNTQPVRNSSGYVTGSGTYSSDTSSFFYRFFSTSGLKNGWDGNAAFQSLQLAKLVWIAATSNRGGSHAFILDGFAYWRPQTRYLVKNFDFYFHANMGWGGYYDGFYLVNKDLSITFDTSNGSYDRNFSMIYNIINK,not soluble
13,MKNILVFLMLGVMLSALQELRYPSGYRVNGSRVFYTYIELTEIDMTTFEILNERYAKDKNAVYYEGKVIVNVDPEDFELLGDFFGKTKNNIYIGNTIIKDADINSFELLGHSRSRDKNHVFFADKILKNADPATYIVFNNKYAKDKNHVYFWDKEIENADAPTFEVLNGEYGKDKNRVYYNSRVVRKADPATFRILEGPFSKDKNYVYVTGEIFEKADVKTFQTLGDYGYAKDKRYVYRYNKILEGEKPADFLPPPQPVIMY,not soluble
14,MNRISTSSVNSSFNYTAPTEEAQNRFASAPDNSPLVVTTTSIAQASEGLQRPGATLSMQAQRLRQLMGSPSEQCRRDTMLAKAFDAQRLNINTQAGSSNSPHLNALNTLQQRHFKPAAGGLEIPVTSNSLLGGGRQVYQIGSSSRELSHRPVNDQDRAPFRALERLHAELFRGGPIEFVPRGSNVLASNVRDVDMDEFDVINSKDGCQGIGTTGLGPCIAVCARGMDREGLPVLGVYHHSGIGSPEDTMATLDQAMRDKGALQIKYSLVGGMIMPKEEEAGSYDDEQSFLALKGSYSIEGARLHVSEGEEDVHTGEDNSVNVLLMPDRVLYGRDTLYC,not soluble
15,MGSDKIHHHHHHMVSRRISEIPISKTMELDAKAKALIKKGEDVINLTAGEPDFPTPEPVVEEAVRFLQKGEVKYTDPRGIYELREGIAKRIGERYKKDISPDQVVVTNGAKQALFNAFMALLDPGDEVIVFSPVWVSYIPQIILAGGTVNVVETFMSKNFQPSLEEVEGLLVGKTKAVLINSPNNPTGVVYRREFLEGLVRLAKKRNFYIISDEVYDSLVYTDEFTSILDVSEGFDRIVYINGFSKSHSMTGWRVGYLISSEKVATAVSKIQSHTTSCINTVAQYAALKALEVDNSYMVQTFKERKNFVVERLKKMGVKFVEPEGAFYLFFKVRGDDVKFCERLLEEKKVALVPGSAFLKPGFVRLSFATSIERLTEALDRIEDFLNSR,soluble
16,SAVPAILQVITESTGLGFAAVARVTEDSWTACAVLDNLGFGLKPGGELELISTICHEIRASHKPVVIDHVAEDELFCAHHTPRRYNFQSYISIPIFLTDGSFFGTICALDPKPAKLTGTPIEAMMVSFARLLALQIEAEENMQRVQ,soluble
17,MALPGNYAPEVLLPQIAEINARIYADVNNGVYKAGFATRQSVYEKAVMVLFRCMDELEQLLSRQRYLIGNCITEADWRIFTTLIRFDPVYHGHFKCNLRRLVDYPNLWAYTRELYQWPGVAETVNMQHIKEHYYRSHPTINLEHHHHHH,not soluble
18,MKDRYLIIDGYNMIGQSQELSRIAQDNLEEAREQLLIAIANYNAVIADEVVCVFDAYEQSGAPTEYMYHGVKTIFTKEKETADSYIERYVYDLYDKHTRHITVVTSDMSEQHAIFGAGAYRVSSREMWRDLRENEISVSKKLDGFNEQKPRTRIELSNEILEEFEKLRRGDNHLEHHHHHH,not soluble
19,MYSDHTQTEAFRGELHGVYGLLFTDGGAPSSAQTSTDFIDASLGVNGYLAADGRGTLAGRVSGVLAGQPAVVGLRNAQAQYWATATGSGDYQINGVRPGRYRMTLYQHELEVAQRDVEVFAGATAQAALQAVSLPGAVKWLEHHHHHH,not soluble
20,MKPDIYALLERALLSGDPDEKGRLTDEAFAAVQNMDGAETNTPPLDFPRAGRPDKPVLVAPSQLTPRKMNTTEGYAAMLHAIAHIEFNAVNLALDAAYRFRTLPFQFVRDWVKVAKEEVYHFRLMRERLRAFGFDYGDFEAHNHLWDMAYKTAYDPLLRMALVPRVLEARGLDVTPGIRAKVAQRGDSETCGVLDIIYRDEVGHVAIGNRWYQHLCRERGLEPIALFRSLIARYDMFIFRGYVNIEAREKAGFSRFELDMLEDFEQSLKQNKNTVMGHHHHHHSH,soluble
21,MDSEEPPNVRVACSGDIDEVVRLMHDAAAWMSAKGTPAWDVARIDRTFAETFVLRSELLVASCSDGIVGCCTLSAEDPEFWPDALKGEAAYLHKLAVRRTHAGRGVSSALIEACRHAARTQGCAKLRLDCHPNLRGLYERLGFTHVDTFNPGWDPTFIAERLELEI,not soluble
22,MGHHHHHHSHMLALATSIHQSQLDRERILSLEQRVVELQQTLAQKDQALGKLEQSLRLMEEASFDGTFLWKITNVTRRCHESACGRTVSLFSPAFYTAKYGYKLCLRLYLNGDGTGKRTHLSLFIVIMRGEYDALLPWPFRNKVTFMLLDQNNREHAIDAFRPDLSSASFQRPQSETNVASGCPLFFPLSKLQSPKHAYVKDDTMFLKCIVETST,not soluble
